Drawing on US20070254831A1 (published 2007), this text covers Kd and IC50 for 19 molecules.

Where two headings read alike, the source gives them in different places. Numbered stars: 1 amine (or outer) side, 2 acyl side, 3 side chain; on linkers, the order of the positions; unused ones are H or OH. Bridge positions count the residues as written; N and C are the ends. Square brackets hold non-standard residues; d marks the D form. Ends that are not written are not given here. X3 = 3(S)‑3‑amino‑2‑oxo‑1‑azepine acetic acid, O=C1[C@@H](N[*:1])CCCCN1CC(=O)[*:2]; 3‑amino‑2‑oxo‑1‑piperidine‑acetic acid = dipeptide mimetic in place of Gly-Gly; 6,5‑bicyclic dipeptide mimic = not defined here; Pen = CC(C)(S)[C@H](N)C(=O)O; NMeA = CN[C@@H](C)C(=O)O; Ava = NCCCCC(=O)O; Sar = CNCC(=O)O

One may read the Kd as the free concentration of one partner at which half of the binding sites on the other are occupied at equilibrium, for simple one-to-one binding. By IC50 is commonly meant the point on the concentration scale where inhibition reaches its midpoint. A higher IC50 goes with weaker potency.

The target in assay [1] is T1, soluble human FcRn (human, UniProt P55899 24-297; P61769 21-119, biotinylated (Sulfo-NHS-LC-Biotin) in the ELISA; amine-coupled to CM5 chip in SPR).
T1 construct: also called shFcRn; biotinylated shFcRn
Briefly: SPR, pH 6.
Method: (§1) The following steps were performed to cross-link soluble human or cynomolgus FcRn to the dextran surface of a CM5 sensor chip (Biacore AB, Uppsala, Sweden) by an amine coupling reaction involving 1-ethyl-(3-dimethylaminopropyl)-carbodiimide hydrochloride (EDC) (Biacore AB, Uppsala, Sweden) and N-hydroxysuccinimide (NHS) (Biacore AB, Uppsala, Sweden) as recommended by Biacore (BIAapplications Handbook, version AB, section 4.2, Biacore AB, Uppsala, Sweden). […] Residual sites on the FcRn flow cell were blocked with 1 M ethanolamine hydrochloride pH 8.5 (Biacore AB, Uppsala, Sweden). A control flow cell was blocked with ethanolamine for reference subtraction. For analysis of the monomeric peptides, FcRn was coated to a final density of 4000-5000 response units (RU). For analysis of the peptide dimers, FcRn was coated to a density of 2000-2500 RU. All SPR measurements were performed using a BIACORE 3000 Instrument (Biacore AB Uppsala, Sweden). For measurements done at either pH 6 or pH 7.4, experiments were performed in 50 mM phosphate, 100 mM sodium chloride, 0.01% surfactant P20 (Biacore AB, Uppsala, Sweden).
(§2) Ten, 2-fold dilutions of the peptide were injected over the FcRn-CM5 chip at a rate of 20 μl/min for 2 min. The peptide was dissociated from the chip for 2.5 minutes with buffer. Any remaining peptide was removed from the chip with a 30 second injection of HBS-P buffer (Biacore AB, Uppsala, Sweden) at a rate of 30 μl/min. Sensorgrams were generated and analyzed using BiaEval software version 3.1 (Biacore AB, Uppsala, Sweden). The equilibrium RU observed for each injection was plotted against concentration. The equilibrium KD values were derived by analysis of the plots using the steady state affinity model included in the BiaEval software.

Assay [2] deals with T1, soluble human FcRn. Briefly: SPR, pH 7.4. For orientation: SPR reads the build-up and loss of mass on a sensor chip optically.
Method: as §1, §2
Assay [3] has as its target T1, soluble human FcRn. Briefly: SPR, pH 6. This is another data set of the same source.
Method: as §1, §2
Assay [4] concerns the target T1, soluble human FcRn. Put plainly: ELISA, competitor human IgG.
Method: (§3) The wells were coated with 100 μl/well of 1 μg/ml biotinylated-shFcRn in Buffer A. The plate was sealed and incubated at 37° C. for 2 hours. Afterwards, the plate washed with 200 μl/well of Buffer B (Buffer B: 100 mM MES pH 6, 150 mM NaCl, 0.5% BSA IgG-free (Jackson ImmunoResearch, West Grove, Pa.), 0.05% Tween-20). […] To allow for mixing, the plate was rocked for 2 minutes, sealed and incubated at 37° C. for 2 hours. […] The plate was covered, incubated for 30 minutes at room temperature and washed 4 times with 200 μl/well of ice-cold buffer B. SureBlue TMB substrate solution (100 μl/well, KPL, Gaithersburg, Md.) was added and the plate was allowed to incubate at room temperature until color developed, which took 5 to 10 minutes. Once color developed, 100 μl/well of TMB stop solution (KPL, Gaithersburg, Md.) was added and the absorbance was measured at 450 nm. The data was plotted as absorbance vs. peptide concentration to derive the inhibitory concentration 50% (IC₅₀) values.
For assay [5], the target named is T1, soluble human FcRn. Briefly: SPR, pH 7.4. The source holds these as a separate data set.
Method: as §1, §2
The target of assay [6] is T1, soluble human FcRn. Briefly: ELISA, competitor human IgG. This is another data set of the same source. On the technique in general: An ELISA detects its analyte on a solid surface through an enzyme-linked reagent.
Method: as §3
The target of assay [7] is T1, soluble human FcRn. Put plainly: SPR, pH 6. The source holds these as a separate data set.
Method: as §1, §2
Assay [8] addresses T1, soluble human FcRn. Put plainly: ELISA, competitor human IgG. The source holds these as a separate data set.
Method: as §3
The target in assay [9] is T1, soluble human FcRn. Put plainly: SPR, pH 6. The source holds these as a separate data set.
For assay [10], the target named is T1, soluble human FcRn. Briefly: ELISA, competitor human IgG. This is another data set of the same source.
Method: as §3
Assay [11] has as its target T1, soluble human FcRn. Briefly: SPR, pH 6. This is another data set of the same source.
Method: as §1, §2
Assay [12] concerns the target T1, soluble human FcRn. Put plainly: ELISA, competitor human IgG. This is another data set of the same source.
Method: as §3
In assay [13] the target is T1, soluble human FcRn. Briefly: ELISA, competitor human IgG. This is another data set of the same source.
Method: as §3
In assay [14] the target is T1, soluble human FcRn. Briefly: ELISA, competitor human IgG. This is another data set of the same source.
Method: as §3
The target of assay [15] is T1, soluble human FcRn. Put plainly: SPR, pH 6. This is another data set of the same source.
Method: as §1, §2
Assay [16] deals with T1, soluble human FcRn. Put plainly: SPR, pH 7.4. The source holds these as a separate data set.
Method: as §1, §2
Assay [17] concerns the target T1, soluble human FcRn. Briefly: ELISA, competitor human IgG. The source holds these as a separate data set.
Method: as §3
Assay [18] has as its target T1, soluble human FcRn. Briefly: SPR, pH 6. This is another data set of the same source.
Method: as §1, §2
Assay [19] has as its target T1, soluble human FcRn. Put plainly: ELISA, competitor human IgG. The source holds these as a separate data set.
Method: as §3
The target of assay [20] is T1, soluble human FcRn. Put plainly: SPR, pH 7.4. The source holds these as a separate data set.
Method: as §1, §2

T1 sequence (P55899 24-297 limits assumed, chain 1 of 2): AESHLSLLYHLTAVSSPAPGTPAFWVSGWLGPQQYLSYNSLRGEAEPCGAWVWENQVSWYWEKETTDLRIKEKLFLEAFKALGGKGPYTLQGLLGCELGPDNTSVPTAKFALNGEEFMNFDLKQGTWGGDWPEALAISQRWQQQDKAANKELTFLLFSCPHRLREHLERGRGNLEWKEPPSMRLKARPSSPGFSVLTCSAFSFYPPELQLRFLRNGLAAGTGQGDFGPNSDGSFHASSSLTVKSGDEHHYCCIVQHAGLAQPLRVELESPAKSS
T1 sequence (P61769 21-119 limits assumed, chain 2 of 2): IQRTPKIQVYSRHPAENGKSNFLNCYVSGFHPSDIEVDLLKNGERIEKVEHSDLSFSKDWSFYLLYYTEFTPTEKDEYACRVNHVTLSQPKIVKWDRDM

AGGGCVTGHFGGIYCNTQGTGGGK-NH2 (disulfide 5-15 (inferred)) [SEQ ID NO:7]: the figures for the Kd in the assay with soluble human FcRn [1] and in the assay with soluble human FcRn [2] were 5.2 µM and 34.7 µM, respectively.

With RFXTGHFGGLYPCNGP (Pen at 3; NMeLeu at 10; disulfide; C-terminal amide) [Peptide No. 146], the figures for the Kd with soluble human FcRn [3] and with soluble human FcRn [5] were 0.059 µM and 0.28 µM, respectively. The same molecule showed an IC50 with soluble human FcRn [4] of 2.1 µM.

In the assay with soluble human FcRn [6], QRFXTGHFGGLXPCNGP (Pen at 4; 4-amino-Phe at 12; disulfide; C-terminal amide) [Peptide No. 63] gave an IC50 of 110 µM. The same molecule had a Kd with soluble human FcRn [7] of 34 µM.

B1: Peptide No. 213 (peptide)
peptide: QRF[Pen][NMeA]GHFGGLYPCNGP-NH2
modifications: disulfide 4-14; N-terminus assumed
SMILES: CC(C)C[C@@H]1NC(=O)CNC(=O)CNC(=O)[C@H](Cc2ccccc2)NC(=O)[C@H](Cc2c[nH]cn2)NC(=O)CNC(=O)[C@H](C)N(C)C(=O)[C@@H](NC(=O)[C@H](Cc2ccccc2)NC(=O)[C@H](CCCNC(=N)N)NC(=O)[C@@H](N)CCC(N)=O)C(C)(C)SSC[C@@H](C(=O)N[C@@H](CC(N)=O)C(=O)NCC(=O)N2CCC[C@H]2C(N)=O)NC(=O)[C@@H]2CCCN2C(=O)[C@H](Cc2ccc(O)cc2)NC1=O
In the assay with soluble human FcRn [8], B1 registered an IC50 of 5.5 µM. Also, the Kd with soluble human FcRn [9] worked out at 1 µM.

For the molecule RF[Pen]TGHFG[Sar]YPCNGP-NH2 (disulfide 3-12 (inferred), printed without the Leu after Sar) [Peptide No. 147], the Kd worked out at 0.058 µM with soluble human FcRn [3] and 0.35 µM with soluble human FcRn [5]. Besides, in the assay with soluble human FcRn [4], the IC50 was 1 µM.

For the molecule RFVTGHF[6,5‑bicyclic dipeptide mimic]LYPA-NH2 (reading uncertain) [Peptide No. 207], the half-maximal inhibitory concentration (IC50) with soluble human FcRn [10] is greater than 125 µM. For the same molecule, in the assay with soluble human FcRn [11], the Kd came to 20 µM.

Take AGPSYCIEGHIDGIYCFNAGTGGGK-NH2 (disulfide 6-16 (inferred)) [SEQ ID NO:9]: the Kd turned out to be 8.8 µM in the assay with soluble human FcRn [1] and 76 µM in the assay with soluble human FcRn [2]. The IC50 with soluble human FcRn [12] was 49 µM.

B2: Peptide No. 216 (peptide)
peptide: QRFXTGHFGXYPCNGP
modifications: Pen at 4; X at 10 = L,L-Friedinger's lactam (dipeptide mimetic for Gly-Leu); disulfide; C-terminal amide
In turn, B2 gave an IC50 with soluble human FcRn [13] of 19 µM.

B3: Peptide No. 208 (peptide)
peptide: RFVTGHF[X3]LYPA-NH2
modifications: N-terminus assumed
SMILES: CC(C)C[C@H](NC(=O)CN1CCCC[C@H](NC(=O)[C@H](Cc2ccccc2)NC(=O)[C@H](Cc2c[nH]cn2)NC(=O)CNC(=O)[C@@H](NC(=O)[C@@H](NC(=O)[C@H](Cc2ccccc2)NC(=O)[C@@H](N)CCCNC(=N)N)C(C)C)[C@@H](C)O)C1=O)C(=O)N[C@@H](Cc1ccc(O)cc1)C(=O)N1CCC[C@H]1C(=O)N[C@@H](C)C(N)=O
In the case of B3, the IC50 in the assay with soluble human FcRn [10] amounted to 23 µM. In the assay with soluble human FcRn [11], this molecule had a Kd of 2.3 µM.

B4: Peptide No. 185 (peptide)
peptide: RFVTGHFXLYPA
modifications: X at 8 = 3-amino-N-1-carboxymethyl-2,3,4,5-tetrahydro-1H-[1]-benzazepine-2-one (drawing CHEM-US-00097); linear; C-terminal amide
B4 displayed an IC50 in the assay with soluble human FcRn [10] of 57 µM. Also, in the assay with soluble human FcRn [11], the affinity, expressed as Kd, was 3.1 µM.

With QRFVTGHF[3‑amino‑2‑oxo‑1‑piperidine‑acetic acid]WYPINGP-NH2 (also: further groups not given here) [Peptide No. 191], in the assay with soluble human FcRn [11], binding was put at a Kd of 333 µM.

With AGQRFCTGHFGGLYPCNGPGTGGGK-NH2 (disulfide 6-16 (inferred)) [SEQ ID NO:6], the Kd in the assay with soluble human FcRn [1] was 5.7 µM; with soluble human FcRn [15], 5.7 µM; in the assay with soluble human FcRn [2], 45 µM; with soluble human FcRn [16], 45 µM. Besides, the concentration for half-maximal inhibition (IC50) in the assay with soluble human FcRn [14] and with soluble human FcRn [12] was 36 µM in each case.

B5: Peptide No. 35 (peptide)
peptide: QRFCTGHF[Ava]LYPCNGP-NH2
modifications: disulfide 4-13; N-terminus assumed
SMILES: CC(C)C[C@@H]1NC(=O)CCCCNC(=O)[C@H](Cc2ccccc2)NC(=O)[C@H](Cc2c[nH]cn2)NC(=O)CNC(=O)[C@H]([C@@H](C)O)NC(=O)[C@@H](NC(=O)[C@H](Cc2ccccc2)NC(=O)[C@H](CCCNC(=N)N)NC(=O)[C@@H](N)CCC(N)=O)CSSC[C@@H](C(=O)N[C@@H](CC(N)=O)C(=O)NCC(=O)N2CCC[C@H]2C(N)=O)NC(=O)[C@@H]2CCCN2C(=O)[C@H](Cc2ccc(O)cc2)NC1=O
In the assay with soluble human FcRn [17], B5 registered an IC50 greater than 125 µM.

B6: Peptide No. 194 (peptide)
peptide: QRFXTGHFGXYPCNGP
modifications: Pen at 4; X at 10 = D,L-Friedinger's lactam (dipeptide mimetic for Gly-Leu); disulfide; C-terminal amide
As for B6, in the assay with soluble human FcRn [13], the IC50 was 4.9 µM.

Consider QRFCTGHFAGLYPCNGP-NH2 (disulfide 4-14 (inferred)) [SEQ ID NO:31], for which the Kd with soluble human FcRn [18] was 230 µM; in the assay with soluble human FcRn [20] it was 200 µM. In the assay with soluble human FcRn [19], this molecule yielded an IC50 greater than 125 µM.

For the molecule QRFCTGHFGGAYPCNGP-NH2 (disulfide 4-14 (inferred)) [SEQ ID NO:33], the Kd in the assay with soluble human FcRn [18] came out at 26 µM; with soluble human FcRn [20], 81 µM. In the assay with soluble human FcRn [19], this molecule returned an IC50 of 107 µM.

QRFCTGHFGGLYACNGP-NH2 (disulfide 4-14 (inferred)) [SEQ ID NO:35]: in the assay with soluble human FcRn [20], binding was characterised by a dissociation constant (Kd) of 100 µM.

Take QRFXTGHFGGLXPCNGP (Pen at 4; 3-pyridylAla at 12; disulfide; C-terminal amide) [Peptide No. 67]: in the assay with soluble human FcRn [6], the IC50 was 92 µM. In the assay with soluble human FcRn [7], this molecule displayed a Kd of 34 µM.

For the molecule AGKIICSPGHFGGMYCQGKGTGGGK-NH2 (disulfide 6-16 (inferred)) [SEQ ID NO:8], the Kd in the assay with soluble human FcRn [1] was 22 µM. Besides, the IC50 with soluble human FcRn [12] was found to be 64 µM.
